The values that follow are results of earlier work, collected in article PMC10499909.

The target in this data set is lactoferrin (species not stated, cited Kd) (UniProt P02788). The note with it: PBS pH 6.8, 37 °C, 30 min in dark; CDs-aptamer 0.05 mg/mL with graphene oxide nanosheets.
lactoferrin (species not stated, cited Kd), sequence (P02788 20-710): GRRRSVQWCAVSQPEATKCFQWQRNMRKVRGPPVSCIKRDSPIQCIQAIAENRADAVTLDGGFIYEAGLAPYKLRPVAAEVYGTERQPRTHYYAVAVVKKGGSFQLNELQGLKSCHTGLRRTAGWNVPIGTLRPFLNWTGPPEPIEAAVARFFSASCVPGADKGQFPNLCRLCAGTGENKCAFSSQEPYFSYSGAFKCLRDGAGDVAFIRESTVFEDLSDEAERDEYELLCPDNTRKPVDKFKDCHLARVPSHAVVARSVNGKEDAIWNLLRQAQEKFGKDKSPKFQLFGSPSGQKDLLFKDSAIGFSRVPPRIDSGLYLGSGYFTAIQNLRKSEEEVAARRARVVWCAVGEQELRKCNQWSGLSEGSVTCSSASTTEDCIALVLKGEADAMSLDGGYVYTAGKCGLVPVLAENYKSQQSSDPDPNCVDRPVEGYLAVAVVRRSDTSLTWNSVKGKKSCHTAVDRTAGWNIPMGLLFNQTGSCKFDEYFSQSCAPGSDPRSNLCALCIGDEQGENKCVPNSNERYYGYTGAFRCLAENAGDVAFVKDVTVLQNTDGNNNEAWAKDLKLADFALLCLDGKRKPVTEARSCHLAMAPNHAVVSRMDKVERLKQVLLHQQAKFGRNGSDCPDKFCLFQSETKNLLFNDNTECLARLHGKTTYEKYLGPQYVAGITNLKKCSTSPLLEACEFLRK

Take “AGGCAGGACACCGTAACCGGTGCATCTATGGCTACTAGCTCTTCCTGCCT [LF aptamer]”: the Kd (commonly a measure of binding affinity in units of concentration) is 4.97 nM.
